These results are taken from publication PMC8955606 (Toxins, 2022).

Changes are numbered by the printed parent chain.

Conditions in all cases: both partners purified
Assay [1] has as its target Protective Antigen PA83 (83 kDa) of Bacillus anthracis (Bacillus anthracis, strain of …, UniProt P13423). As to the kind of experiment: SPR.
Assay [2] addresses T1, PA83 peptide PLYISNPNY (domain IV) (Bacillus anthracis).
T1 chain: PLYISNPNY
The assay is described as follows: peptide or protein array.

Assay [3] has as its target T2, PA83 region YTVDVKNKRTFLSPWI (domain I) (Bacillus anthracis).
T2 chain: YTVDVKNKRTFLSPWI
As to the kind of experiment: peptide or protein array.

Protective Antigen PA83 (83 kDa) of Bacillus anthracis, sequence (P13423 whole entry, looked up): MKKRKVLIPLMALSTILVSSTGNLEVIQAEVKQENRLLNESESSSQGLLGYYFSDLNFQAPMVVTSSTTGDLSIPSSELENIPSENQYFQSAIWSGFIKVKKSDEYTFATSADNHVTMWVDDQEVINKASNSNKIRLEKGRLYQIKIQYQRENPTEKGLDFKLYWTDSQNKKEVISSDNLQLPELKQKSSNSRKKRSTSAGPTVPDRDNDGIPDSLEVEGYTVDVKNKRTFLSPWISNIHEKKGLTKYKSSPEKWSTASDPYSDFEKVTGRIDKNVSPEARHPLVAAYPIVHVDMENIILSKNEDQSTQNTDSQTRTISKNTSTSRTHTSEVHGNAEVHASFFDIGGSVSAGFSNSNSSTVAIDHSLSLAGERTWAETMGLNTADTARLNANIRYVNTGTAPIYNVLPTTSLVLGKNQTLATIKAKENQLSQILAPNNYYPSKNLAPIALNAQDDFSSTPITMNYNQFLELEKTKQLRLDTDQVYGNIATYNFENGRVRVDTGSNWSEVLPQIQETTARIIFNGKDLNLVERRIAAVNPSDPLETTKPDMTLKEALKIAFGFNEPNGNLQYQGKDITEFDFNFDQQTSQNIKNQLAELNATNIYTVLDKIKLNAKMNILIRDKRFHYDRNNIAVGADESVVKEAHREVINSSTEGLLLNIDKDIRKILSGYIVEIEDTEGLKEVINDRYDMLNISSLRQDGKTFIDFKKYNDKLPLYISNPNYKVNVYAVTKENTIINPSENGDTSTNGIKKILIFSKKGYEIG

B1: 35PA83 6.20 G1 (antibody, V domains shown)
VH: QVQLQESGPGLVKPSETLSLTCTVSGDSISGGYYWGWIRQSPGKGLEWIGLIYGSTADTRYNPSLKGRVTISKDTSKNQFSLKLSSVTAADTAVYYCARSGYNFWSGEYYGLDSWGQGTLVTVSS
VL: AIQLTQSPSSLSAYVGDRVTITCHASQGINSWLAWYQQKPGKAPKLLIYKASSLLSGVPSRFSGSGSGTDFTLTISSLQSEDFATYYCLQYDSAPLAFGPGTKLEIK
notes: also called mutant that combined the 10 selected mutations; source: expressed and purified by Proteogenix
One may read the Kd as the concentration at which binding is half-saturated. Lower therefore signals a tighter complex. In assay [1], B1 yielded a Kd of 0.316 nM.

B2: 35PA83 6.20 IgG1 (GMP batch) (antibody, V domains shown)
VH: B1 VH with V12L, T23A, G36S, F80L, K83Q, S85R, T119A, L120V
VL: B1 VL with R18K, F71Y, T85S, E105D
notes: also called IgG 35PA83 6.20; 35PA83 6.20 mAb; source: rat YB2/0-E cell line (LFB), GMP conditions
Regarding B2, the binding result in assay [2] and in assay [3] was “binds” each time.

B3: 35PA83 6.20 (parental antibody of the super-humanization) (antibody, V domains shown)
VH: B1 VH with V12L, T23A, G36S, F80L, K83Q, S85R, T119A, L120V
VL: B1 VL with R18K, F71Y, T85S, E105D
notes: also called the parental antibody; 35PA80 6.20
With B3, the affinity in assay [1], expressed as Kd, was 0.18 nM.
